Test results from paper PMC6921269.

Key:
[1] = system: CCCCCCCCCCCCCCCC(=O)CC(=O)SCCNC(C)=O; assay: purified protein; conditions: co-substrate C5 diketide-NAC, 37 °C, 20 min
[2] = system: CCCCCCCCCCCCCCCCCC(=O)CC(=O)SCCNC(C)=O; assay: purified protein; conditions: co-substrate C5 diketide-NAC, 37 °C, 20 min

CsyB (Aspergillus oryzae RIB40; I375F)
Km [1]: 5.4 ± 1.8 mM
kcat [1]: 0.713 ± 0.075 s⁻¹
kcat/Km [1]: 132 M⁻¹ s⁻¹
Km [2]: 6.5 ± 2.1 mM
kcat [2]: 0.882 ± 0.14 s⁻¹
kcat/Km [2]: 136 M⁻¹ s⁻¹
